The record followed here is article PMC8811538, “Pilot scale production, extraction and purification of a thermostable phycocyanin from Synechocystis sp. PCC 6803” (Bioresource Technology, 2022).

Where “and” joins values, the source holds several entries; their conditions need not be identical. Identical values can stand only once.

Data set [1] deals with the molecule itself. In words: SEC; purified, freeze-dried Te-PC resuspended in 15 mM citric acid-trisodium citrate pH 6.0; 250 µL (425 µg Te-PC) on Superdex-200 10/300 GL in 100 mM trisodium citrate, pH 6.0, 8 °C, 0.5 mL/min; absorption at 280 and 615 nm; sizes from molecular weight standards (apparent); peaks about 5% hexamer, 80% trimer, 15% (ɑβ) monomer. A general note: SEC sorts molecules by how far they enter the pores of the column.

In data set [2] the target is T1, phycocyanin β-subunit (CpcB) of Te-PC (Thermosynechococcus elongatus BP-1, UniProt P50033 1-172, phycobilin chromophore (chromophorylated; sites not given)).
T1 construct: phycocyanin beta-subunit CpcB of Thermosynechococcus elongatus BP-1, expressed from the cpcBACD (TeBACD) operon; source: Synechocystis sp
T1 sequence (looked up): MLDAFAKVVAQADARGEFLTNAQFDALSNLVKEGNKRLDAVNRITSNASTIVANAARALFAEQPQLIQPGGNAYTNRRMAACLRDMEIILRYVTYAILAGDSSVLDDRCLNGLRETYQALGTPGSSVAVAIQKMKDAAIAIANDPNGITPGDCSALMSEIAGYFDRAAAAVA
Described as above. The conditions noted are these: both partners purified.

B1: thermostable phycocyanin from Thermosynechococcus elongatus BP-1, (ɑβ) monomer (complex)
chain 1: not shown
chain 2: T1 sequence (looked up)
modifications: phycobilin chromophore (chromophorylated; sites not given) | phycobilin chromophore (chromophorylated; sites not given)
notes: phycocyanin alpha-subunit CpcA of Thermosynechococcus elongatus BP-1, expressed from the cpcBACD (TeBACD) operon; phycocyanin beta-subunit CpcB of Thermosynechococcus elongatus BP-1, expressed from the cpcBACD (TeBACD) operon; The construct is described in the supplementary materials and in Puzorjov et al., 2021; also called Te-PC; PC; source: Synechocystis sp
For B1, in data set [1], the stoichiometry N (in general, a count of units in the complex or per binding partner) was 6 and 3.

B2: phycocyanin ⍺-subunit (CpcA) of Te-PC (natural protein)
chain: not shown
modifications: phycobilin chromophore (chromophorylated; sites not given)
notes: phycocyanin alpha-subunit CpcA of Thermosynechococcus elongatus BP-1, expressed from the cpcBACD (TeBACD) operon; source: Synechocystis sp
As to B2, in data set [2], the binding result is “binds”.
